Data reported in patent US11858972B2, “Micropeptides and uses thereof” (FUNDACIÓ PRIVADA INSTITUT D'INVESTIGACIÓ ONCOLÒGICA DE VALL …, priority 2018, dated 2024).

What was measured:
[1] = system: A549, human lung cancer; test: Cell death after retroviral overexpression (phase contrast images); assay type: cell-based
Source text: (§1) FIG. 23. Overexpression of the micropeptide of SEQ ID NO: 3 in cancer cell lines. (A) Analysis of SEQ ID NO: 3 overexpression by qPCR in A459 cells. (B) Detection of SEQ ID NO: 3 micropeptide expression in A459 cells by Western blot. (C) Phase contrast images of the indicated cell lines after SEQ ID NO: 3 overexpression.

[2] = system: HCT116, human colorectal cancer; test: as above; assay type: cell-based
Source text: as §1

[3] = system: p21; test: p21 expression by qPCR in A549; assay type: cell-based, human; conditions: A459 cells
Description: (§2) FIG. 24. Overexpression of the micropeptide of SEQ ID NO: 3 induces p21 upregulation and a pro-apoptotic program (A) qPCR analysis of p21 expression in HCT116 and A549 cancer cell lines upon SEQ ID NO: 3 overexpression. (B) Western blot analysis of p21 protein in A549 SEQ ID NO: 3-overexpressing cells. Cells treated with Nutlin-3 (10 μM) were used as positive control for p21 upregulation. (C) qPCR analysis of the indicated apoptosis-related genes in SEQ ID NO: 3-overexpressing HCT116 cells.
(§3) Total RNA was extracted with Trizol® and treated with TURBO™ DNase following provider's recommendations. 1 μg of RNA was retrotranscribed using iScript™ cDNA Synthesis Kit (BioRad). Gene expression was analysed by quantitative real time PCR using PowerUp SYBR Green Master Mix (Thermo Fisher Scientific) in the 7900HT Fast Real-Time PCR System (Applied Biosystems). Cycle threshold (Ct) values were normalized to GAPDH.

[4] = system: p21; test: p21 expression by qPCR in HCT116; assay type: cell-based, human; conditions: HCT116 cells
Description: as §2, §3

[5] = system: p21 protein; test: p21 protein by Western blot in A549; assay type: cell-based, human
Description: as §2
Cells pellets (4-5*10^6 cells) were homogenized in medium-salt lysis buffer (150 mM NaCl, 50 mM Tris pH 8, 1% NP40 and protein inhibitors cocktail). 50 μg of protein was loaded per lane in a 12% acrylamide gel and electrophoresed in Tris-Glycine SDS Running Buffer. The following antibodies were used: Anti-HA-Tag (Abcam, 1:5000), Anti-p53 (Santa Cruz, 1:1000), Anti-p21 (Thermo Fisher, 1:1000), Anti-GAPDH (Thermo Fisher, 1:5000).

[6] = system: BAX, BAK and BCL-2; test: Apoptosis-related gene expression by qPCR in HCT116; assay type: cell-based, human; conditions: HCT116 colorectal cancer cell line
Description: as §2, §3

[7] = system: EMT regulators and adhesion factors in human primary fibroblasts (IMR90); test: EMT related gene expression by qPCR in IMR90; assay type: cell-based; conditions: vs empty vector
Source text: (§4) FIG. 15. Expression of the micropeptide of SEQ ID NO: 2 induces loss of mesenchymal identity in IMR90 (A), MIA PaCa-2 (B) and BxPC-3 (C) cell lines. mRNA levels of the indicated genes measured by qPCR. Values are relative to cells expressing the empty vector as a control. *P<0.05, **P<0.01, ***P<0.001 using Student's t-test for statistics. Error bars represent standard error of n=3 technical replicates.
as §3

[8] = system: EMT regulators and adhesion factors in MIA PaCa-2 pancreatic cancer cell line; test: EMT related gene expression by qPCR in MIA PaCa-2; assay type: cell-based; conditions: MIA PaCa-2, vs empty vector
Source text: as §4, §3

[9] = system: EMT regulators and adhesion factors in BxPC-3 pancreatic cancer cell line; test: EMT related gene expression by qPCR in BxPC-3; assay type: cell-based; conditions: BxPC-3, vs empty vector
Source text: as §4, §3

[10] = system: EMT regulators, adhesion factors and METALLOPROTEINASE-2 in murine pancreatic cancer associated fibroblasts (mCAFs); test: EMT related gene expression by qPCR in mCAFs; assay type: cell-based; conditions: vs empty vector
Description: (§5) FIG. 16. Overexpression of the micropeptide of SEQ ID NO: 2 induces loss of mesenchymal identity. mRNA levels of the indicated genes were measured by qPCR in mCAFs (A-B) cells. Values are relative to cells expressing the empty vector as a control. *P<0.05; **P<0.01; ***P<0.001 using Student's t-test for statistics. Error bars represent standard error of n=3 technical replicates.
as §3

[11] = system: BxPC-3 cells; test: Wound healing assay; assay type: cell-based; conditions: BxPC-3, vs empty vector
Description: (§6) FIG. 17. The micropeptide of SEQ ID NO: 2 impairs migration capability of pancreatic cancer cell lines. Wound healing assay was performed in MIA PaCa-2 (A) and BxPC-3 (B) cells infected with MIDORI or empty vector. Phase contrast images show the wound at the indicated time points after the scratch was performed.
(§7) MIA PaCa-2 and BxPC-3 cells were trypsinized, counted, and 400,000 cells/well were seeded in 6-well plates. Next day, a pipette tip was used to scratch the surface of cell monolayer, forming a wound. An Olympus CeIIR microscope equipped with a Hamamatsu C9100 camera was used to follow the closure of the wound.

[12] = system: MIA PaCa-2 cells; test: Wound healing assay; assay type: cell-based; conditions: MIA PaCa-2, vs empty vector
Description: as §6, §7

[13] = system: BxPC-3 cell line; test: Invasion assay (Boyden chamber, Matrigel); assay type: cell-based; conditions: BxPC-3, 24 hours after seeding, vs empty vector
Description: (§8) FIG. 18. Expression of the micropeptide of SEQ ID NO: 2 impairs cell invasion in pancreatic cancer cells. (A) Invasion of BxPC-3 cells transduced with micropeptide of SEQ ID NO: 2 or empty vector across matrigel-covered inserts. Representative pictures of invading cells 24 hours after seeding. (B) Relative number of invading cells. Bars represent the average of two independent experiments±SD (n=2), as relative to invading cells in the empty vector conditions. * p<0.05, using Student's t-test.
(§9) BxPC-3, MDA-MB-231, A549 and H10 cell lines were trypsinized, counted, and 20.000 cells/well were seeded in triplicate in a Corning® cell culture insert (Boyden chamber) in which the porous membrane is coated with a layer of Matrigel® to mimic an extra cellular matrix (ECM). Cells were allowed to invade through the coated membrane for 24 hours in the cell incubator at 37° C. After the incubation time, culture inserts were fixed in methanol 5 minutes at RT and stained using Crystal Violet 20 minutes at RT. The excess of Crystal Violet staining was removed washing with PBS and pictures of the chambers were taken using an Olympus CeIIR microscope. Invading cells were counted using ImageJ and fold change was calculated normalizing to the control.

[14] = system: PDAC pancreatic cancer cells co-cultured with CAFs; test: CAFs pro-invasive activity, co-culture with PDAC cells in Matrigel coated inserts; assay type: cell-based, mice; conditions: micropeptide expressed in CAFs in bottom compartment, PDAC cells co-cultured 24 h
Description: FIG. 19. Expression of the micropeptide of SEQ ID NO: 2 reduces pro-tumoral activity of mCAFs cells. (A) Invasion of WT PDAC pancreatic cancer cells across matrigel-covered inserts where mCAFs expessing the micropeptide of SEQ ID NO: 2 or empty vector were seeded in the bottom compartment of the Boyden chambers. Representative pictures of invading cells 24 hours after seeding. (B) Relative number of invading cells.±SD (n=3 technical replicates), as relative to invading cells in the empty vector conditions.
BxPC-3 and A549 cell lines were cultured in RPMI supplemented with 10% of FBS and penicillin-streptomycin. Patient derived-H10 skin squamous cell carcinoma cell line was cultured in DMEM-F12 supplemented with B27 and penicillin-streptomycin. Cancer associated fibroblasts (CAFs) and PDAC cell lines were derived from LSL^−KrasG12D/+;LSL-Trp53R172H/+;Pdx-1-Cre mice and cultured in DMEM-F12 supplemented with 10% FBS and penicillin-streptomycin. All the other cell lines were cultured in DMEM supplemented with 10% of FBS and penicillin streptomycin. Cultures were routinely tested for mycoplasma and were always negative.
In order to test CAFs pro-invasive activity, 40.000 CAFs/well were seeded in 24-well plates. 48 h later, PDAC cells were trypsinized, counted, and 20.000 cells were seeded in the upper compartment of Matrigel® coated inserts that were placed over CAFs containing wells. […]

[15] = system: SLUG, ZEB1, ZEB2, VIMENTIN, E-CADHERIN and CYTOKERATIN-5 in MDA-MB-231; test: Mesenchymal and epithelial gene expression by qPCR in MDA-MB-231; assay type: cell-based, human; conditions: MDA-MB-231, vs empty vector
Description: as §5, with “21.” for “16.”, “MDA-MB-231 cell line.” for “mCAFs (A-B) cells.”
as §3

[16] = system: MDA-MB-231 breast cancer cell line; test: Invasion assay (Boyden chamber, Matrigel); assay type: cell-based, human; conditions: MDA-MB-231, 24 hours after seeding, vs empty vector
Description: as §8, with “22.” for “18.”, “reduces” for “impairs”, “of breast” for “in pancreatic”, “MDA-MB-231 breast cancer” for “BxPC-3”, “cells±SD (n=3 technical replicates),” for “cells. Bars represent the average of two independent experiments±SD (n=2),”
as §9

Row | Molecule | cell death [1] | cell death [2] | p21 expression (qPCR) [3] | p21 expression (qPCR) [4] | p21 protein levels [5] | expression of the antiapoptotic gene BCL-2 [6] | expression of the pro-apoptotic genes BAX and BAK [6] | expression of EMT regulators SNAIL, SLUG, ZEB1, ZEB2, TWIST1 and VIMENTIN (if expressed) and adhesion factors COLLAGEN I, COLLAGEN IV, CD44 and FIBRONECTIN [7] | expression of EMT regulators SNAIL, SLUG, ZEB1, ZEB2, TWIST1 and VIMENTIN (if expressed) and adhesion factors COLLAGEN I, COLLAGEN IV, CD44 and FIBRONECTIN [8] | expression of EMT regulators SNAIL, SLUG, ZEB1, ZEB2, TWIST1 and VIMENTIN (if expressed) and adhesion factors COLLAGEN I, COLLAGEN IV, CD44 and FIBRONECTIN [9] | expression of EMT regulators SNAIL, SLUG, ZEB1, ZEB2, TWIST1 and VIMENTIN (if expressed) and adhesion factors COLLAGEN I, COLLAGEN IV, CD44 and FIBRONECTIN [10] | expression of METALLOPROTEINASE-2 [10] | migration capability in wound healing assays [11] | migration capability in wound healing assays [12] | invasion [13] | pancreatic cancer cell invasion (non-cell autonomous) [14] | expression of epithelial markers E-CADHERIN and CYTOKERATIN-5 [15] | expression of the EMT regulators SLUG, ZEB1, ZEB2 and VIMENTIN [15] | invasion capability [16]
1 | SEQ ID NO: 3: 78-amino acid micropeptide encoded by the first exon of LINC0086 lncRNA (protein, listed as Homo sapiens) MAASAALSAAAAAAALSGLAVRLSRSAAARGSYGAFCKGLTRTLLTFFDLAWRLRMNFPYFYIVASVMLNVRLQVRIE | massive cell death | massive cell death | substantial p21 upregulation | substantial p21 upregulation | increased p21 protein levels | downregulation | upregulation |  |  |  |  |  |  |  |  |  |  |  | 
2 | SEQ ID NO: 2: 64-amino acid micropeptide encoded by ZEB2 antisense 1 (ZEB2AS1) long non-coding RNA (protein, listed as Homo sapiens) MVRRKSMKKPRSVGEKKVEAKKQLPEQTVQKPRQECREAGPLFLQSRRETRDPETRATYLCGEG |  |  |  |  |  |  |  | downregulation | downregulation | downregulation | downregulation | downregulation | decreased migration capability | decreased migration capability | decreased invasion | reduces pancreatic cancer cell invasion | upregulation | downregulation | decreased invasion capability
